assay: soluble on expression in E. coli; label from the status in PepcDB or PDB records

Sequence	soluble on expression in E. coli
TSSLSYWQGEAFRRGFDSRGRFDDVLKILLLLDAAQKEGKALPVQEFRRHINMGYDELGELLEKLARHGYIYSGRQGWVLKTGADSIELNELFKLFVYRPLPVERDHVNQAVDAVMTPCLQTLNMTLAEFDAQAKKRQ	not soluble
TTQNELLNRIAELETKVAFQDNVIEELNQVLIHHQFVLDKLQTQVRHFANKFKNIQSSNVASQAEETPPPHY	not soluble
TTTVGLVCKDGVVMATEKRATMGNFIASKAAKKIYQIADRMAMTTAGSVGDAQFLARIIKIEANLYEIRRERKPTVRAIATLTSNLLNSYRYFPYLVQLLIGGIDSEGKSIYSIDPIGGAIEEKDIVATGSGSLTAYGVLEDRFTPEIGVDEAVELAVRAIYSAMKRDSASGDGIDVVKITEDEFYQYSPEEVEQILAKFRK	soluble
TVEFRDLQGQRMIAVAENVASTPVVRDQLSDRSVERVLAPEVDRAVNLSGATLAEIVAPNGAVTVSSDPTRLGVPAELGASDVMTGRAWSGDVDVDGRRAIVGHVPILSATGDVLAVVTVSDDYPSVWDLLSSAG	not soluble
TVQVPVYSEQEYQLYLHDDAWTKAETDHLFDLSRRFDLRFVVIHDRYDHQQFKKRSVEDLKERYYHICAKLANVRAVPGTDLKIPVFDAGHERRRKEQLERLYNRTPEQVAEEEYLLQELRKIEARKKEREKRSQDLQKLITAADTTAEQRRTERKAPKKKLPQKKEAEKPAVPETAGIKFPDFKSAGVTLRSQRMKLPSSVGQKKIKALEQMLLELGVELSPTPTEELVHMFNELRSDLVLLYELKQACANCEYELQMLRHRHEALARAGVLGGPATPASGPGPASAEPAVTEPGLGPDPKDTIIDVVGAPLTPNSRKRRESASSSSSVKKAKKP	soluble
VADVVPLDANNRILVHQGLMRIRAGRARPGLRAILEVARREPARITSTDLGFILGPRLNAAGRLDDMSLGIECLLCDDPTRAREMAVQLDELNQDRKSIEQGMQREALAQLKDLPMESMPFGLCLFDAEWHQGVIGIL	not soluble
VDEKALKHITEMGFSKEASRQALMDNGNNLEAALNVLLTSNKQKPVMGPP	soluble
VDGDQCESNPCLNGGSCKDDINSYECWCPFGFEGKNCEL	soluble
VDRLHIIGDIFDRGPRADIIMDKLEEYHAVDIQWGNHDILWMGAASGSSVCMANVIRISARYANLSTIEDGYGINLLPLATFAMDFYGNDKCKNFEPKIESDKSYTVKEIELIGKMHKAIAIIQFKLEGEAIKRHPEFKMEHRMLLNKINFEDSTIELDGKKYKLNDTSFPTIDKNDPYKLIDEEREVVEKLRSSFVNSEKLNRHVRFLFSHGNLYLKFNSNLLYHGCIPLNEDGTFKEVLIGSHKYKGKALLDKLDVLARKSFFYEENSKNSKYENDMIWYLWSGPFSPLFGKEKMTTFERYFIDDKKTHYEKKDPYYHYRDDEDICINILREFGLDSEQAHIINGHVPVESKNGENPIKANGKLIVIDGGFSKAYQSKTGIAGYTLIYNS	not soluble
VDSVFVVGHKNLDMDALGASVGMQAFANNIIEHAAYAVYDEDSMSHDVARAVNRLKEDGHTQLLTVKESIEQVSDNSLLVMVDHSKLQLTLSRELYNKFTEVIVIDHHRRDDDFPENAILTFIESGASSASELVTELLQFQNGKYHLNKIQASIVMAGIMLDTKSFSTRVTSRTFDVASYLRTLGSDNVEIQNISALDF	not soluble
VEVESFLVHPGDLLQLRCRLRDDVQSINWLRDGVQLAESNRTRITGEEVEVQDSVPADSGLYACVTSSPSGSDTTYFSVNVSDALP	soluble
VFALSNNLNRVNACMDGFLARIRSHVDAHAPELRSLFDTMAAEARFARDWLSEDLARLPVGAALLEVGGGVLLLSCQLAAEGFDITAIEPTGEGFGKFRQLGDIVLELAAARPTIAPCKAEDFISEKRFDFAFSLNVMEHIDLPDEAVRRVSEVLKPGASYHFLCPNYVFPYEPHFNIPTFFTKELTCRVMRHRIEGNTGMDDPKGVWRSLNWITVPKVKRFAAKDATLTLRFHRAMLVWMLERALTDKEFAGRRAQWMVAAIRSAVKLRVHHLAGYVPATLQPIMDVRLTKR	not soluble
VGAPLAVELDRSSPVPLYFQLAQTIENAIIGGELAPGDRFENELALAKRLNLSRPTTRRAIQELVDKGLLVRKRGVGTQVVQSAVHRPVELTSLFDDLARAGQSPTTKLLDYQVSVPAEDVAAELNLQPGAEVASIRRLRSTNGEPLALMTNHIPVDLAPDPEELEAHGLYHALRARGVHIRLARQRIGAKAASKAEASLLDEKTGAPLLTMNRTAFDDSGSAVEFGSHCYRASRYYFDTTVVDR	not soluble
VGVGYFDTIEIKTILSLLQIIDNPMQDIPLISVLKSPIFGFTPEDLIDIRVQSKDKIFYEVLKSTAEYDGFTDSQNENESEFIPSEECINKSKDFLIKLKEFKEKSMYMSTDEFIWYLYTRTGYYAYVGALPGGSQRQANLKVLFERAKQFEETSLKGIFNFVNFIEKLKKSSSDMGSAKT	soluble
VHSELTAAVGWNVWNELFTCSDDQTIHKWNMLGEPEQKVSTLDAYFTDMHWYPVSSKKTQAGGTDVFAVACTDGSVKILSRTGRVEKSIEGHKGACISLRWSYDGTALATAGEDGSVKIWSRNGMLRSTLAQADSPVYSIVWAYDCDQLCYCTGSNVVIKSLSSNAKQNAWKAHDGVVLKVDWSPINHLIITGGEDCKYKVWDSFGRLLFQSGLFDYPVTSVAWAPSGELFAVGGFNTLQLCDRMGWAYSKIHLNDTGSIMTLSWTADSTQLA	not soluble
VKLTDVDFAVEASGMVRAFNQAGVLDVSDVHVAQRLCALAGESDERVALAVAVAVRALRAGSVCVDLLSIARVAGHDDLPWPDPADWLAAVRASPLLADPPVLHLYDDRLLYLDRYWREEEQVCADLLALLTSRRPAGVPDLRRLFPTGFDEQRRAAEIALSQGVTVLTGGPGTGKTTTVARLLALVAEQAELAGEPRPRIALAAPTGKAAARLAEAVRREMAKLDATDRARLGDLHAVTLHRLLGAKPGARFRQDRQNRLPHNVIVVDETSMVSLTLMARLAEAVRPGARLILVGDADQLASVEAGAVLADLVDGFSVRDDALVAQLRTSHRFGKVIGTLAEAIRAGDGDAVLGLLRSGEERIEFVDDEDPAPRLRAVLVPHALRLREAALLGASDVALATLDEHRLLCAHRDGPTGVLHWNRRVQAWLAEETGQPPWTPWYAGRPLLVTANDYGLRVYNGDTGVVLAGPTGLRAVISGASGPLDVATGRLGDVETMHAMTIHKSQGSQVDEVTVLMPQEDSRLLTRELLYTAVTRAKRKVRVVGSEASVRAAIARRAVRASGLRMRLQSTGCG	soluble
VKNPSLICAPVMADSIDKMVIETSKAHELGADLVEIRLDWLKDFNPLEDLKTIIKKSPLPTLFTYRPKWEGGQYEGDENERRDVLRLAMELGADYIDVELQVASEFIKSIDGKKPGKFKVIVSSHNYQNTPSVEDLDGLVARIQQTGADIVKIATTAVDIADVARMFHITSKAQVPTIGLVMGERGLMSRILCSKFGGYLTFGTLDSSKVSAPGQPTIKDLLDLYNFRRIGPDTKVYGIIGKPVSHSKSPIVHNQAFKSVDFNGVYVHLLVDNLVSFLQAYSSSDFAGFSCTIPHKEAALQCCDEVDPLAKSIGAVNTILRRKSDGKLLGYNTDCIGSISAIEDGLRSSGDPSSVPSSSSPLASKTVVVIGAGGAGKALAYGAKEKGAKVVIANRTYERALELAEAIGGKALSLTDLDNYHPEDGMVLANTTSMGMQPNVEETPISKDALKHYALVFDAVYTPRITRLLREAEESGAITVSGSEMFVRQAYEQFEIFTGLPAPKELYWQIMSKYGSRENLYFQ	soluble
VLGSSSTDAIGPGSVFQIDATVADVYLVSRFNRTHIIGRPVLYIVQDCFSKLIVGLYVGLEGPSWIGAAMALANTAGNKVSFCSQYGIDIQEEEWPVHHLPQAILADRGEMLSDNAESLIMNLGITVKNTPPFRADWKPLVERYFKLTNERTKSLLPGAVNTDFMQRGGRDYRLDAKLDLMQFTAIIIKCALFHNNHYRIDNYNKDEMMVADEVEPIPREIWNWGIANRMGKLRHVDEEVVKLNLMPSDNGVVTAKGIRFKGLFYSSKSSMKEQWFVKARSSGSWKVPVSYDPRNMNYIYIKKSATEFEKCYLLEYQTAFKDKYIEEIEYLMEWEKMQKAKSLDEGLQAKADLITEIETIVEGAKSKTNKELSLSTESDAQRKKNIRQNRQVEKEINREIEAFELDRQPNNKNAEIISLNELEEELPSNPLDLLRRKQREMLGKINE	not soluble

— the DeepSol protein solubility set
